Measurements published in patent US20260263614A1, “ANTIBODY DRUG CONJUGATES THAT BIND CDCP1 AND USES THEREOF” (Pheon Therapeutics Ltd, priority 2022, published 2026).
Read-outs that look alike come from different tables or passages of the source.

How the values were obtained:
[1] = tested on: HexA and MS1 DNA fragments; assay: DNA footprinting; format: binding
Method: Footprinting reactions were performed as using previously described methods using the DNA fragments HexA and HexB, which together contain all 64 symmetrical hexanucleotide sequences, and MS1 that contains all possible […] tetranucleotide sequences. The DNA fragments were obtained by cutting the parent plasmids with HindIII and SacI (for HexA and MS1) or EcoRI and PstI (for HexB), and were labelled at the 3′-end of the HindIII or EcoRI sites with [α-^32P]dATP using reverse transcriptase or exo-Klenow fragment. After gel purification, the radiolabelled DNA was dissolved in 10 mM Tris-HCl pH 7.5 containing 0.1 mM EDTA, at a concentration of about 10 c.p.s per μL as determined on a hand held Geiger counter. 1.5 μL of radiolabelled DNA was mixed with 1.5 μL ligand that had been freshly diluted in 10 mM Tris-HCl pH 7.5, containing 10 mM NaCl. The complexes were left to equilibrate for at least 12 hours before digesting with 2 μL DNase I (final concentration about 0.01 units/mL). The reactions were stopped after 1 minute by adding 4 μL of formamide containing 10 mM EDTA and bromophenol blue (0.1% w/v). The samples were then heated at 100° C. for 3 minutes before loading onto 8% denaturing polyacrylamide gels containing 8 M urea. Gels were fixed in 10% acetic acid, transferred to 3 MM paper, dried and exposed to a phosphor screen overnight, before analysing with a Typhoon phosphorimager
The DNA sequence selectivity profile of the molecules was investigated using a modification of a previously established DNA footprinting assay. Following an overnight incubation of the ligand-DNA complexes, the mixture was mixed with strand separation buffer containing 10 mM EDTA, 10 mM NaOH, 0.1% bromophenol blue, 80% formamide and incubated at 100° C. for 3 min. The mixture was then immediately cooled on ice and run on an 8% denaturing gel. […] The possible adducts formed within the HexA sequences are shown in FIGS. 20 and 21, respectively.

[2] = tested on: linear double-stranded TyrT fragment; assay: DNA cross-linking assay; format: biochemical
Method: The preparation of the TyrT DNA fragment has been previously described. Briefly, the sequence which had been cloned into the BamHI site of pUC18 was obtained by cutting with HindIII and EcoRI. Radiolabelled DNA fragments were prepared by filling in the 3′-end of the HindIII site with [α-^32P]dATP using Klenow DNA polymerase (exo-).
The radiolabelled DNA fragment was separated from the remainder of the plasmid DNA on a 6% non-denaturing polyacrylamide gel. The gel (20 cm long, 0.3 mm thick) was run at 400 V in 1×TBE running buffer for about 1-2 h, until the bromophenol blue had run most of the way down the gel. The glass plates were separated and the position of the labelled DNA fragment was established by short (1 min) exposure to an X-ray film. The relevant band was then cut from the gel and the radiolabelled DNA eluted by adding 300 μL 10 mM Tris-HCl, pH 7.5 containing 0.1 mM EDTA and gently agitating overnight at room temperature. The eluted DNA was finally precipitated with ethanol and re-suspended in a suitable volume of 10 mM Tris-HCl, pH 7.5 containing 0.1 mM EDTA buffer so as to give at least 10 counts per second/μL on a hand-held Geiger counter. With fresh plasmid and α-^32P-dATP this process typically generated about 150 μL of radiolabelled fragment DNA. The absolute concentration of the DNA is not important, and it is typically lower than 10 nM.
Radiolabelled DNA ([…]) was mixed with 1.5 μL ligand solution of various concentrations (10 μM-10 nM) and incubated overnight at 37° C.
After overnight incubation, the samples were mixed with 7 μL loading solution (80% formamide containing 10 mM EDTA, 10 mM NaOH, 0.1% bromophenol blue) and incubated at 65° C. for 5 min. Control 1 (C1) for native double-stranded DNA consisted of 1.5 μL labelled DNA, 1.5 μL 10 mM Tris-HCl, pH 7.5 containing 0.1 mM EDTA and 7 μL 1× loading dye. […]
The ability of 26 to cross-link DNA was evaluated using an assay involving a linear double-stranded TyrT fragment (FIG. 17). […]

[3] = Comparative repeat-dose rat toxicity study; format: in vivo; details: DAR 8 on a Trastuzumab backbone; IV once every 3 weeks, two doses, 20 or 60 mg/kg
[4] = molecular target: T1, huCDCP1(F30-T667 Q525)-8×His_T3 (human, UniProt Q9H5V8 30-667); assay: SPR, huCDCP1(F30-T667 Q525)-8×His_T3 as analyte; mAb lot T14
T1 construct: The construct name gives the limits F30-T667 and Q525; also called recombinant CDCP1 ECD; CDCP1 ECD

[5] = molecular target: T2, CDCP1 on antigen-positive cells (A427; CDCP1+ cells MDA-MB-468, PC3, DU145) (Homo sapiens (Human), UniProt Q9H5V8 30-836, On the FIG. 45 cell lines, part of the CDCP1 is proteolytically cleaved in the extracellular domain; the cleavage site is not stated. The uncleaved mature protein is given.); assay: binding to CDCP1+ cells (cell line not given), % Maximum against log concentration, fitted curve
T2 construct: also called the antigen; antigen positive cell-line (A427)

[6] = molecular target: T2, CDCP1 on antigen-positive cells (A427; …); assay: as above; remark: listed apart in the source
[7] = molecular target: T2, CDCP1 on antigen-positive cells (A427; …); assay: flow cytometry on MDA-MB-468 cells (CDCP1+ cleavage), channel R712-A

| Molecule | Kd [4] [nM] | koff [4] [s⁻¹] | kon [4] [M⁻¹ s⁻¹] | also measured |
| --- | --- | --- | --- | --- |
| C=CCOC(=O)N1c2cc(OCCCC(=O)Nc3cc(C(=O)Nc4ccc(NC(=O)C(F)(F)F)cc4)n(C)c3)c(OC)cc2C(=O)N2CCCC[C@H]2C1OC1CCCCO1 (stereo partly drawn) [Compound 17, Allyl (6aS)-2-methoxy-3-(4-((1-methyl-5-((4-(2,2,2-trifluoroacetamido)phenyl)carbamoyl)-1H-pyrrol-3-yl)amino)-4-oxobutoxy)-12-oxo-6-((tetrahydro-2H-pyran-2-yl)oxy)-6,6a,7,8,9,10-hexahydrobenzo[e]pyrido[1,2-a][1,4]diazepine-5(12H)-carboxylate] | – | – | – | DNA-binding site (X any base, W adenine or thymine) [1]: XGXWWWW |
| COc1cc2c(cc1OCCCC(=O)Nc1cc(C(=O)Nc3ccc(N)cc3)n(C)c1)N=C[C@@H]1CCCCN1C2=O [Compound 19, (S)—N-(4-Aminophenyl)-4-(4-((2-methoxy-12-oxo-6a,7,8,9,10,12-hexahydrobenzo[e]pyrido[1,2-a][1,4]diazepin-3-yl)oxy)butanamido)-1-methyl-1H-pyrrol-2-carboxamide] | – | – | – | ability to cross-link DNA (conclusion) [2]: incapable of cross-linking DNA |
| COc1cc2c(cc1OCCCC(=O)Nc1cc(C(=O)Nc3ccc(-c4cc(C(=O)Nc5ccc(N)cc5)n(C)c4)cc3)n(C)c1)N=C[C@@H]1CCCCN1C2=O [Compound 26, (S)—N-(4-aminophenyl)-4-(4-(4-(4-((2-methoxy-12-oxo-6a,7,8,9,10,12-hexahydrobenzo[e]pyrido[1,2-a][1,4]diazepin-3-yl)oxy)butanamido)-1-methyl-1H-pyrrol-2-carboxamido)phenyl)-1-methyl-1H-pyrrol-2-carboxamide] | – | – | – | ability to cross-link DNA (conclusion) [2]: incapable of cross-linking DNA; DNA interstrand cross-links ([2]; six concentrations, overnight incubation at 37° C., denaturing gel): not detectable at any concentration; DNA stabilisation and sequence selectivity (biophysical summary) [1]: effectively stabilises DNA with a high degree of sequence-specificity; DNA-binding site (X any base, W adenine or thymine) [1]: XGXWWWW; footprints (preferred sites) on HexA ([1]; overnight incubation of ligand-DNA complexes): only five preferred sites |
| CC[C@@]1(O)C(=O)OCc2c1cc1n(c2=O)Cc2c-1nc1cc(F)c(C)c3c1c2[C@@H](NC(=O)CO)CC3 [Dxd, reference compound] | – | – | – | tolerability [3]: well tolerated |
| CDCP1-vcMMAE (DAR of 4) (antibody, V domains shown, vc-MMAE (Val-Cit linker, monomethyl auristatin E) conjugated to the antibody, DAR of 4; sites not stated, also called CDCP1-MMAE) VH: EVQLLESGGGLVQPGGSLRLSCAASGFTFSNYAMNWVRQAPGKGLEWVSAISGGGGSTYYADSVKGRFTISRDNSKNTLYLQMNSLRAEDTAVYYCAKESITMVRGVMDYYGMDVWGQGTTVTVSS VL: DIQLTQSPSFLSASVGDRVTITCRASQGISSYLAWYQQKPGKAPKLLIYAASTLQGGVPSRFSGSGSGTEFTLTISSLQPEDFATYYCQHLNRFPRTFGQGTKVEIK | 0.604 | 0.00038 | 629000 | EC50 [5]: 0.384 µg/mL |
| ADC2 (CDCP1 mAb conjugated to compound 20, DAR of 4) (antibody, IgG1, V domains shown, compound 20 (maleimide-Val-Ala-PDD linker-payload) conjugated stochastically to reduced cysteines of the IgG1, average DAR 4.2; sites not stated) VH: EVQLLESGGGLVQPGGSLRLSCAASGFTFSNYAMNWVRQAPGKGLEWVSAISGGGGSTYYADSVKGRFTISRDNSKNTLYLQMNSLRAEDTAVYYCAKESITMVRGVMDYYGMDVWGQGTTVTVSS VL: DIQLTQSPSFLSASVGDRVTITCRASQGISSYLAWYQQKPGKAPKLLIYAASTLQGGVPSRFSGSGSGTEFTLTISSLQPEDFATYYCQHLNRFPRTFGQGTKVEIK | 0.635 | 0.000374 | 589000 | – |
| ADC4 (CDCP1 mAb conjugated to compound 30, DAR of 4) (antibody, IgG1, V domains shown, compound 30 (Mal-amido-PEG8-Val-Ala-exatecan) conjugated stochastically to reduced cysteines of the IgG1, average DAR 4; sites not stated) VH: EVQLLESGGGLVQPGGSLRLSCAASGFTFSNYAMNWVRQAPGKGLEWVSAISGGGGSTYYADSVKGRFTISRDNSKNTLYLQMNSLRAEDTAVYYCAKESITMVRGVMDYYGMDVWGQGTTVTVSS VL: DIQLTQSPSFLSASVGDRVTITCRASQGISSYLAWYQQKPGKAPKLLIYAASTLQGGVPSRFSGSGSGTEFTLTISSLQPEDFATYYCQHLNRFPRTFGQGTKVEIK | 0.604 | 0.000401 | 663000 | – |
| ADC3 (CDCP1 mAb conjugated to compound 30, DAR of 8) (antibody, IgG1, V domains shown, compound 30 (Mal-amido-PEG8-Val-Ala-exatecan) conjugated stochastically to reduced cysteines of the IgG1, average DAR 7.3 (called DAR of 8); sites not stated, also called CDCP1-targeted exatecan conjugate) VH: EVQLLESGGGLVQPGGSLRLSCAASGFTFSNYAMNWVRQAPGKGLEWVSAISGGGGSTYYADSVKGRFTISRDNSKNTLYLQMNSLRAEDTAVYYCAKESITMVRGVMDYYGMDVWGQGTTVTVSS VL: DIQLTQSPSFLSASVGDRVTITCRASQGISSYLAWYQQKPGKAPKLLIYAASTLQGGVPSRFSGSGSGTEFTLTISSLQPEDFATYYCQHLNRFPRTFGQGTKVEIK | 0.57 | 0.000422 | 740000 | EC50 [6]: 0.16 µg/mL |
| mAbs-CDCPA1 Sequence 2 (anti-CDCP1 antibody, Sequence 2) (antibody, V domains shown) VH: QVQLVQSGAEVKKPGSSVKVSCKASGGTFSSYAMSWVRQAPGQGLEWMGGIIPILGTTNYAQKFQGRVTITADKSTSTAYMELSSLRSEDTAVYYCAREGLYAFDIWGQGTMVTVSS VL: DIQMTQSPSSLSASVGDRVTITCRASQSISSYLNWYQQKPGKAPKFLIYVASSLQSGVPSRFSGRGSGTDFTLTISSLQPEDFATYYCQQSYSTPWTFGQGTKVEIK | – | – | – | binding result [7]: binds |
